Experimental data reported in PMC12065890.

Tests used:
[1] = target: full-length Amh (SPR protein) (zebrafish); test: SPR
[2] = target: Amh C-terminal domain (SPR protein) (zebrafish); test: SPR

Kd [1]: 0.116 µM
Kd [2]: 1.39 µM
Substance: Bmpr2a domain protein (protein kinase domain of Bmpr2a, SPR protein) (domain or fragment)
